Biological target: Phaseolus coccineus PCNA1 (PcPCNA1), recombinant (Phaseolus coccineus)
Experiment: SEC

**Q.** How did the stoichiometry N turn out when “Phaseolus coccineus PCNA1 (PcPCNA1), recombinant (natural protein)” was run?
**A.** 3
